{"source": "patent US10159707B2", "about": "“Treatment of cancers with immunostimulatory HIV Tat derivative polypeptides” (PIN Pharma, Inc., priority 2013, dated 2018)", "molecules": {"B1": {"name": "Nani-P1: Tat derivative polypeptide SEQ ID NO:2; TF HIV-1, cysteine-rich HIV-1, C-terminal HIV-1 (protein)", "chain": "MEPVDANLEAWKHAGSQPRKTACTTCYCKKCCFHCQVCFTRKGLGISYGRKKRRQRRRAPQDSQTHQASLSKQPASQSRGDPTGPTESKKKVERETETDPFD", "modifications": "Tat derivative polypeptide"}, "B2": {"name": "Nani-P3: Tat derivative polypeptide SEQ ID NO:4; TF SIVsmm, cysteine-rich murine βdefensin, C-terminal HIV-1 (protein)", "chain": "METPLKEQENSLESCREHSSSISEVDVPTPVSCLRKGGRCWNRCIGNTRQIGSCGVPFLKCCKRKPFTRKGLGISYGRKKRRQRRRAPQDSQTHQASLSKQPASQSRGDPTGPTESKKKVERETETDPFD", "modifications": "Tat derivative polypeptide"}}, "key": {"[1]": {"system": "4T1 cells", "assay": "Repeated dosing of Nani-P2 and cyclophosphamide in 4T1 tumor-bearing mice", "format": "in vivo, mouse", "conditions": "cyclophosphamide 80 mg/kg IP weekly from day 10", "procedure": "Four groups of 10 BALB/c mice were implanted with 1×10^4 4 T1 cells SC into the mammary fat pad. Treatment was initiated when tumor diameters reached 4-5 mm, on day 10. Control mice were injected IV with PBS at 3 days intervals, while alternating treatment mice received 3 doses of drug every 3 days in rotating 10 day cycles. Tumor burden (tumor size mm^3) was calculated using a standard formula. CY (cyclophosphamide alone) mice were injected IP weekly with 80 mg/kg per mouse beginning on day 10. Cy/Nani-P2 (cyclophosphamide first followed by Nani-P2) mice were first injected IP with cyclophosphamide (80 mg/kg) at 3 days intervals for three doses starting at day 10 and then injected IV with Nani-P2 (40 ng) at 3 days intervals for three doses in rotation. The cycle of 3 doses of CY followed by 3 doses of Nani-P2 was repeated until day 50. Nani-P2/CY (Nani-P2 first followed by cyclophosphamide) mice were first injected IV with Nani-P2 (40 ng) at 3 day intervals for 3 doses starting on day 10 and then injected i.p. with cyclophosphamide at 3 day intervals in rotation. The cycle of 3 doses of Nani-P2 followed by 3 doses of CY was repeated until day 50."}, "[2]": {"system": "4T1 breast tumor", "assay": "4T1 primary breast tumor growth in BALB/c mice", "format": "in vivo, mouse", "conditions": "400 ng partially-purified, SC, days 0, 7, 14, 21 (Nani-P3 also 2 μg); from day 15, p<0.05", "procedure": "BALB/c mice were injected (SC) with 1×10^4 4 T1, 1×10^5 TS/A or 2×10^5 SM1 cells, respectively, in the left mammary pad on day 0. […] The control group received PBS injection. […] Tumor burden (tumor volume) was measured and recorded three times weekly. Animals were sacrificed when tumors reached a volume of 15 mm in diameter and the tumors harvested and weighed.\nThe therapeutic effect of systemic administration of synthetic, Tat-derived compositions in murine models of breast cancer was investigated. […]"}}, "note": "Entries after “also recorded” stand apart in the source; their conditions may differ.", "data": [{"molecule": "O=P1(N(CCCl)CCCl)NCCCO1", "note": "(stereo not drawn) [cyclophosphamide, reference compound]", "values": [{"measurement": "mice dead by day 42", "setting": "[1]", "result": "10/10"}]}, {"molecule": "B1", "values": [{"measurement": "4T1 tumor burden versus PBS control", "setting": "[2]", "result": "significantly reduced tumor burden; also recorded: significant"}]}, {"molecule": "B2", "values": [{"measurement": "4T1 tumor burden versus PBS control", "setting": "[2]", "result": "less effective at suppressing 4T1 primary tumor growth; also recorded: no difference"}]}]}
